Source: publication PMC11274412, “Characterization of Receptor Binding Affinity for Vascular Endothelial Growth Factor with Interferometric Imaging Sensor” (Biosensors, 2024)

Tests used:
Aflibercept (Eylea) [1] = biological target: T1, Aflibercept (Eylea); experiment: Interferometric Reflectance Imaging Sensor (IRIS); equilibrium IRIS signal on drug spots against VEGF concentration, fitted with the Langmuir isotherm; conditions: both partners purified
T1 chain: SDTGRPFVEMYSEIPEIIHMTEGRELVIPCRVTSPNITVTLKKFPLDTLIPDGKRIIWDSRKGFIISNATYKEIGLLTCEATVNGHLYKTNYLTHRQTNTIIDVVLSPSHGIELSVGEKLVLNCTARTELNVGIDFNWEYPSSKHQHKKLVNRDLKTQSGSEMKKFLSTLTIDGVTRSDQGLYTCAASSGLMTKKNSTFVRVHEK

Aflibercept (Eylea) [2] = biological target: T1, Aflibercept (Eylea); experiment: Interferometric Reflectance Imaging Sensor (IRIS); equilibrium IRIS signal on drug spots against VEGF concentration, fitted with the Langmuir-Freundlich isotherm; conditions: both partners purified

- Ka (Aflibercept (Eylea) [1]): 1.05e+09 M⁻¹
- Kd (Aflibercept (Eylea) [1]): 17.5 nM
- Ka (Aflibercept (Eylea) [2]): 1.5e+08 M⁻¹
- Kd (Aflibercept (Eylea) [2]): 66 nM
B1: Recombinant human VEGF165 protein (ligand)
chain: APMAEGGGQNHHEVVKFMDVYQRSYCHPIETLVDIFQEYPDEIEYIFKPSCVPLMRCGGCCNDEGLECVPTEESNITMQIMRIKPHQGQHIGEMSFLQHNKCECRPKKDRARQENPCGPCSERRKHLFVQDPQTCKCSCKNTDSRCKARQLELNERTCRCDKPRR
modifications: disulfide-linked homodimer; N-glycosylated (HEK293 expressed); limits are the conventional mature VEGF165 (191-aa precursor minus 26-aa signal) / human IgG1 Fc (C-terminal, dimerizing …)
